Measurements reported in article PMC6969506 (Proceedings of the National Academy of Sciences of the …, 2020).

Biological target: the molecule itself
Experiment: SEC-MALS

B1: CDTb construct lacking the C-terminal RBD2 (residues 212 to 751; CDTb∆RBD2) (domain or fragment)
chain: SDWEDEDLDTDNDNIPDSYERNGYTIKDLIAVKWEDSFAEQGYKKYVSNYLESNTAGDPYTDYEKASGSFDKAIKTEARDPLVAAYPIVGVGMEKLIISTNEHASTDQGKTVSRATTNSKTESNTAGVSVNVGYQNGFTANVTTNYSHTTDNSTAVQDSNGESWNTGLSINKGESAYINANVRYYNTGTAPMYKVTPTTNLVLDGDTLSTIKAQENQIGNNLSPGDTYPKKGLSPLALNTMDQFSSRLIPINYDQLKKLDAGKQIKLETTQVSGNFGTKNSSGQIVTEGNSWSDYISQIDSISASIILDTENESYERRVTAKNLQDPEDKTPELTIGEAIEKAFGATKKDGLLYFNDIPIDESCVELIFDDNTANKIKDSLKTLSDKKIYNVKLERGMNILIKTPTYFTNFDDYNNYPSTWSNVNTTNQDGLQGSANKLNGETKIKIPMSELKPYKRYVFSGYSKDPLTSNSIIVKIKAKEEKTDYLVPEQGYTKFSYEFETTEKDSSNIEITLIGSGTTYLDNLSITELNSTPEILDEP
- stoichiometry N: 7
